Data as given in publication PMC10141624.

Target: HA-T-AGM protein (recombinant soluble trimeric hemagglutinin of Influenza A/Guangdong-Maonan/SWL1536/2019 (H1N1) pdm09-like virus) (Influenza A/Guangdong-Maonan/SWL1536/2019 (H1N1) | not stated)
Assay: SEC

Substance: HA-T-AGM protein (recombinant soluble trimeric hemagglutinin of Influenza A/Guangdong-Maonan/SWL1536/2019 (H1N1) pdm09-like virus)
- stoichiometry N: 3
